Test [1] deals with EBOV GP[change] (unstabilised, ectodomain-only Ebola virus glycoprotein without mucin-like domain) (Ebola virus (Mayinga 1976 strain)) (UniProt Q05320). In words: SEC. (In general: SEC sorts molecules by how far they enter the pores of the column.)
Test [2] concerns the target NiV F[change] (recombinant NiV sF glycoprotein in its postfusion conformation) (Nipah virus). The test is described as follows: SEC.

Results on two substances are retold here after publication PMC9436389 (Frontiers in Immunology, 2022).

What is called stoichiometry N is the number of molecules, sites or subunits per partner or assembly.

On to “EBOV GP[change] (unstabilised, ectodomain-only Ebola virus glycoprotein without mucin-like domain) (from UniProt Q05320) (domain or fragment)”, for which, in test [1], the stoichiometry N came to 3.

Regarding “NiV F[change] (recombinant NiV sF glycoprotein in its postfusion conformation) (domain or fragment)”, in test [2], the stoichiometry N worked out at 3.
